Results reported in patent publication US20230322924A1 (Janssen / Centocor, published 2023).

Experiments:
Cyno CD33 full length = target: T1, Cyno CD33 full length (cynomolgus monkey); assay: flow cytometry on HEK293F cells expressing cyno CD33
T1 construct: also called cyCD33
Protocol: (§1) The purified antibodies were assessed for binding to stably transfected HEK293F cells expressing human CD33 or cyno CD33 (generation described above) along with the parental HEK293F as negative control. Cells were harvested from tissue culture flasks using non-enzymatic dissociation buffer (Thermo Scientific). The flasks were rinsed twice with PBS and dissociation buffer was added to the flask, and the flask was incubated for 10 minutes at 37° C. until the cells became non-adherent. The cells were centrifuged at 300 g for 5 minutes and resuspended at 1.0×10⁶ cells/ml in staining buffer (Becton Dickinson; Franklin Lakes, NJ). 50,000 cells/well of each cell type was plated in 50 μl of staining buffer in round bottom plates (Becton Dickinson). […] 100 μl staining buffer was added to all wells of each plate, the plates were spun at 300 g for 5 min, the buffer was removed, 200 μl staining buffer was added to all wells of each plate, the plates were spun at 300 g for 5 min, and the buffer was removed. 50 μl of 2 μg/ml of Goat-anti-human Fc AF647 secondary antibody (Jackson Immunoresearch; West Grove, PA) was added to all wells of the plates, and the plates were incubated for 30 min at 4° C. 100 μl staining buffer was added to all wells of the plates, the plates were spun at 300 g for 5 min, and the buffer was removed. 200 μl running buffer (running buffer is Staining buffer, 1 mM EDTA, 0.1% Pluronic Acid) was added to all wells of the plates, the plates were spun at 300 g for 5 min, and the buffer was removed. 30 μl running buffer containing Sytox Green live/dead dye (ThermoFisher) was added to all wells with cells and the plates were read on an iQue IntelliCyt flow cytometer. Cells were gated on forward vs. side scatter to eliminate debris, then on singlets and then on live cells which excluded the Sytox stain. Antibody binding was assessed by the mean fluorescence intensity in the AF647 channel.
(§2) The OmniMouse panel (8 mAbs total) was generated separately and characterized further for binding to cells.

Human CD33 ECD-HSA [1] = target: T2, Human CD33 ECD-HSA (human); assay: ProteOn SPR, mAb captured on anti-human Fc, antigen as analyte
T2 construct: CD33 ECD fused at the C-terminus to monomeric HSA (C58S) and a six-histidine tag; also called C33W2; huCD33 ECD-HSA
Protocol: (§3) The panel of mAbs was then further characterized for full affinity analysis as well as epitope binning. The binding of anti-CD33 mAbs to recombinant human CD33 ECD-HSA (C33W2) and cyno CD33 ECD-HSA (C33W1) was measured by ProteOn SPR (Bio-Rad). […] Different mAbs were captured on the anti-human Fc IgG surface at 0.25 or 0.5 μg/ml (160-300 RU) in vertical ligand orientation, with the 6th ligand channel as no ligand surface control. Human and cyno CD33-HSA proteins at 0.3 μM concentration in 3-fold dilution series of 5 concentrations flew in as analyte to bind to captured mAbs in the horizontal orientation. A buffer sample was also injected in the 6th channel to monitor the dissociation of captured mAb and baseline stability. […] The raw biding data were processed by double referencing after subtracting the response data from: 1) the inter-spot to correct for the non-specific interactions between the Ag and the empty chip surface; 2) the buffer channel to correct for baseline drifting due to the dissociation of captured mAb surface over time. The processed data at all antigen concentrations for each mAb were globally fit to a 1:1 simple Langmuir binding model to extract estimates of the kinetic (kₒₙ, koff) and affinity (Kd) constants.

Cyno CD33 ECD-HSA [2] = target: T3, Cyno CD33 ECD-HSA (cynomolgus monkey); assay: as above
T3 construct: Cyno CD33 ECD fused to HSA and a six-histidine tag; also called C33W1
Protocol: as §3

Human CD33 full length = target: T4, Human CD33 full length (human, UniProt P20138 18-364); assay: flow cytometry on HEK293F cells expressing human CD33
T4 construct: also called huCD33
T4 sequence (P20138 18-364 limits assumed): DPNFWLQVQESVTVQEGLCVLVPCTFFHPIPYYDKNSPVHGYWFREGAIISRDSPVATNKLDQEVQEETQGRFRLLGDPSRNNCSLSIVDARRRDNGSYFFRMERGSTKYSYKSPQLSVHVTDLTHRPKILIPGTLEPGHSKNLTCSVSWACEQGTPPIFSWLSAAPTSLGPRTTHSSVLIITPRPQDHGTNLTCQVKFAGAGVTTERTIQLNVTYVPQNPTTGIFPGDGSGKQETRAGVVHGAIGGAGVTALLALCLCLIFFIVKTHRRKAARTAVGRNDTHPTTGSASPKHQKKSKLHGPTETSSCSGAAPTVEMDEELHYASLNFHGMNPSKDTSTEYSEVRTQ
Protocol: as §1, §2

Cyno CD33 ECD-HSA [3] = target: T5, Cyno CD33 ECD-HSA (cynomolgus monkey); assay: ProteOn SPR, mAb captured by anti-human Fc, 1:1 Langmuir fit
T5 construct: Cyno CD33 extracellular domain fused to monomeric human serum albumin and a six-histidine tag; also called C33W1

Human CD33 ECD-HSA [4] = target: Human CD33 ECD-HSA (human); assay: as above
Cyno CD33 ECD-HSA [5] = target: T5, Cyno CD33 ECD-HSA; assay: SPRi off-rate screen (IBIS MX96), mAb captured by anti-human Fc; column head prints Cyno CD33 binding KD
[6] = target: T6, Human CD33 full length, expressed on HEK293F cells (human, UniProt P20138 18-364); assay: flow cytometry, HEK293F cells expressing human CD33
T6 construct: HEK293F cells transduced with lentivirus containing full length human CD33; also called huCD33
T6 sequence (P20138 18-364 limits assumed): as above

Human CD33 ECD-HSA [7] = target: Human CD33 ECD-HSA (human); assay: SPRi off-rate screen (IBIS MX96), mAb captured by anti-human Fc; column head prints KD
[8] = target: T7, Cyno CD33 full length, expressed on HEK293F cells (cynomolgus monkey); assay: flow cytometry, HEK293F cells expressing cyno CD33
T7 construct: HEK293F cells transduced with lentivirus containing full length cyno CD33 (Genbank XP_005590138.1); also called cyCD33

Row | Binder | MFI at 0 nM (background) (Cyno CD33 full length) | MFI at 0.6 nM (Cyno CD33 full length) | MFI at 6 nM (Cyno CD33 full length) | MFI at 60 nM (Cyno CD33 full length) | Kd (Human CD33 ECD-HSA [1]) | koff (Human CD33 ECD-HSA [1]) | kon (Human CD33 ECD-HSA [1]) | Kd (Cyno CD33 ECD-HSA [2]) | koff (Cyno CD33 ECD-HSA [2]) | kon (Cyno CD33 ECD-HSA [2]) | MFI at 0 nM (background) (Human CD33 full length) | MFI at 0.6 nM (Human CD33 full length) | MFI at 6 nM (Human CD33 full length) | MFI at 60 nM (Human CD33 full length) | Kd (Cyno CD33 ECD-HSA [3]) | koff (Cyno CD33 ECD-HSA [3]) | kon (Cyno CD33 ECD-HSA [3]) | Kd (Human CD33 ECD-HSA [4]) | koff (Human CD33 ECD-HSA [4]) | kon (Human CD33 ECD-HSA [4]) | other results
1 | C33B915 (antibody, V domains shown, OMNIMouse-derived anti-CD33 mAb; same V regions as C33B907; also called C33H255/C33L121; C33F553) VH: EVQLVESGGGLVQPGRSLRLSCAASGFTFDDYAMHWVRQVPGEGLEWVSGISWNGGDMVYADSVKGRFTISRDNAKNSLYLQMNSLRPEDTALYYCVKDMPYFDFLTGSDYYYYGMDVWGQGTTVTVSS VL: SYELTQPPSVSVSPGQTASITCSGDNLGNEHVCWYHQKPGQSPVLVIYQNNKRPSGIPERFSGSNSGNTATLSISGTQATDEADYYCQAWDSTTAVFGGGTKLTVL | 114 MFI | 36200 MFI | 35700 MFI | 37500 MFI | 4.53 nM | 0.000989 s⁻¹ | 218000 M⁻¹ s⁻¹ | 0.0234 nM | 8.93e-05 s⁻¹ | 3.81e+06 M⁻¹ s⁻¹ | 112 MFI | 138000 MFI | 363000 MFI | 390000 MFI |  |  |  |  |  |  | 
2 | C33B77 (antibody, IgG1, V domains shown, huIgG1 F405L; also called C33F82; C33H72/C33L40) VH: not shown VL: SYELTQPPSVSVSPGQTASITCSGNKLGAKFASWYQQKPGQSPVLVIYQDNKRPSGIPERFSGSNSGNTATLTISGTQAVDEADYYCQAWDSSTVVFGGGTKLTVL |  |  |  |  |  |  |  |  |  |  |  |  |  |  | 0.247 nM | 0.000266 s⁻¹ | 1.08e+06 M⁻¹ s⁻¹ | 0.32 nM | 0.000262 s⁻¹ | 828000 M⁻¹ s⁻¹ | koff (Cyno CD33 ECD-HSA [5]): 0.000418 s⁻¹; MFI at 0 nM mAb (background) [6]: 69.5 MFI; MFI at 0.6 nM mAb [6]: 11500 MFI; MFI at 6 nM mAb [6]: 88700 MFI; MFI at 60 nM mAb [6]: 242000 MFI; koff (Human CD33 ECD-HSA [7]): 0.000337 s⁻¹; MFI at 0 nM mAb (background) [8]: 85.2 MFI; MFI at 0.6 nM mAb [8]: 3600 MFI; MFI at 6 nM mAb [8]: 11700 MFI; MFI at 60 nM mAb [8]: 17500 MFI
3 | C33B87 (antibody, IgG1, V domains shown, huIgG1 F405L; also called C33F92; C33H87/C33L35) VH: not shown VL: SYELTQPPSVSVSPGQTASITCSGDKLGNKYASWYQQKPGQSPVLVIYQDTKRPSGIPERVSGSNSGNTATLTISGTQAMDEADYHCQAWDSSTVVFGGGTKLTVL |  |  |  |  |  |  |  |  |  |  |  |  |  |  | 0.236 nM | 0.000264 s⁻¹ | 1.12e+06 M⁻¹ s⁻¹ | 0.6 nM | 0.000432 s⁻¹ | 720000 M⁻¹ s⁻¹ | koff (Cyno CD33 ECD-HSA [5]): 0.000228 s⁻¹; MFI at 0 nM mAb (background) [6]: 73.7 MFI; MFI at 0.6 nM mAb [6]: 12500 MFI; MFI at 6 nM mAb [6]: 79500 MFI; MFI at 60 nM mAb [6]: 242000 MFI; koff (Human CD33 ECD-HSA [7]): 0.000352 s⁻¹; MFI at 0 nM mAb (background) [8]: 103 MFI; MFI at 0.6 nM mAb [8]: 3270 MFI; MFI at 6 nM mAb [8]: 12700 MFI; MFI at 60 nM mAb [8]: 19600 MFI
4 | C33B914 (antibody, V domains shown, OMNIMouse-derived anti-CD33 mAb; same V regions as C33B906; also called C33H254/C33L120; C33F552) VH: QVQLVESGGGVVQPGRSLRLSCAASGFTFSYYGMHWVRQAPDKGLEWVAVIWFDGNNKYYADSVKGRFTISRDNSKNTLYLQMNSLRAEDTAVYYCARDRELLFDYWGQGTLVTVSS VL: SYELTQPPSVSVSPGQTASITCSGDELGDMYACWYQQKPGQSPLVVIYQDSKRPSGIPERFSGSNSGNTATLTISGTQAMDEAAYYCQTWDTRIAVFGGGTNLTVL | 86.8 MFI | 22100 MFI | 33400 MFI | 45000 MFI | 22.1 nM | 0.0098 s⁻¹ | 444000 M⁻¹ s⁻¹ | 0.44 nM | 0.000233 s⁻¹ | 529000 M⁻¹ s⁻¹ | 185 MFI | 153000 MFI | 315000 MFI | 304000 MFI |  |  |  |  |  |  | 
